Test results published in US20210346432A1.

What was measured:
ET140-p25 (human) = target: T1, ET140-p25 (human); experiment: peptide ELISA on streptavidin plate, antibody 1 ug/mL
T1 sequence (peptide, N-terminal biotin): SGSGLRCSSNTPPLTCQRY

ET140-p26 (human) = target: T2, ET140-p26 (human); experiment: as above
T2 sequence (peptide, N-terminal biotin): SGSGRCSSNTPPLTCQRYC

A450 (ET140-p25 (human)): 0.492
A450 (ET140-p26 (human)): 0.162
Substance: 901mIgG (antibody)
